Reference: IntAct's records for PubMed 31515488

B1: L-fucose dehydrogenase (Homo sapiens), Q9BPX1 (parent)
chain: MATGTRYAGKVVVVTGGGRGIGAGIVRAFVNSGARVVICDKDESGGRALEQELPGAVFILCDVTQEDDVKTLVSETIRRFGRLDCVVNNAGHHPPPQRPEETSAQGFRQLLELNLLGTYTLTKLALPYLRKSQGNVINISSLVGAIGQAQAVPYVATKGAVTAMTKALALDESPYGVRVNCISPGNIWTPLWEELAALMPDPRATIREGMLAQPLGRMGQPAEVGAAAVFLASEANFCTGIELLVTGGAELGYGCKASRSTPVDAPDIPS
B2: Pre-mRNA-splicing factor SPF27 (Homo sapiens), O75934 (parent)
chain: MAGTGLVAGEVVVDALPYFDQGYEAPGVREAAAALVEEETRRYRPTKNYLSYLTAPDYSAFETDIMRNEFERLAARQPIELLSMKRYELPAPSSGQKNDITAWQECVNNSMAQLEHQAVRIENLELMSQHGCNAWKVYNENLVHMIEHAQKELQKLRKHIQDLNWQRKNMQLTAGSKLREMESNWVSLVSKNYEIERTIVQLENEIYQIKQQHGEANKENIRQDF

Variants of: B1
Conditions: with psa1_human PSMA1, P25786
psa1_human PSMA1, P25786, sequence (P25786 whole entry): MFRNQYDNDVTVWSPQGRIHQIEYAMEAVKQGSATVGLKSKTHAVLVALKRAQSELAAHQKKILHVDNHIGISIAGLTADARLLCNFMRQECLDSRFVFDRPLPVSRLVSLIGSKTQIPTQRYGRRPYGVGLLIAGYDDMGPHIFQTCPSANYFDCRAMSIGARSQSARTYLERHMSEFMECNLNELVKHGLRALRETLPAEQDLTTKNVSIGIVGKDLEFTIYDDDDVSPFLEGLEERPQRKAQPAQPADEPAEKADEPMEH

Row | effect of a mutation on the interaction | Variant
1 | disrupting interaction strength | R130W
2 | with no effect | N31D
3 | with no effect | A56T

Variants of: B1
Conditions: with sr1ip_human SREK1IP1, Q8N9Q2
sr1ip_human SREK1IP1, Q8N9Q2, sequence (Q8N9Q2 whole entry): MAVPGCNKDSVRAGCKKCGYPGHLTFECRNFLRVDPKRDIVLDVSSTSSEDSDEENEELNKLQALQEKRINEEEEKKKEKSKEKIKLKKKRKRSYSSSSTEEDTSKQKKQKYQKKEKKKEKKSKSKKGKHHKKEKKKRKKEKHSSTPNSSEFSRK

Row | effect of a mutation on the interaction | Variant
4 | disrupting interaction strength | R130W
5 | with no effect | N31D
6 | with no effect | A56T

Variants of: B1
Conditions: with ntaq1_human NTAQ1, Q96HA8

Row | effect of a mutation on the interaction | Variant
7 | disrupting interaction strength | R130W
8 | with no effect | N31D
9 | with no effect | A56T

Variants of: B1
Conditions: with phf1_human PHF1, O43189
phf1_human PHF1, O43189, sequence (O43189 whole entry): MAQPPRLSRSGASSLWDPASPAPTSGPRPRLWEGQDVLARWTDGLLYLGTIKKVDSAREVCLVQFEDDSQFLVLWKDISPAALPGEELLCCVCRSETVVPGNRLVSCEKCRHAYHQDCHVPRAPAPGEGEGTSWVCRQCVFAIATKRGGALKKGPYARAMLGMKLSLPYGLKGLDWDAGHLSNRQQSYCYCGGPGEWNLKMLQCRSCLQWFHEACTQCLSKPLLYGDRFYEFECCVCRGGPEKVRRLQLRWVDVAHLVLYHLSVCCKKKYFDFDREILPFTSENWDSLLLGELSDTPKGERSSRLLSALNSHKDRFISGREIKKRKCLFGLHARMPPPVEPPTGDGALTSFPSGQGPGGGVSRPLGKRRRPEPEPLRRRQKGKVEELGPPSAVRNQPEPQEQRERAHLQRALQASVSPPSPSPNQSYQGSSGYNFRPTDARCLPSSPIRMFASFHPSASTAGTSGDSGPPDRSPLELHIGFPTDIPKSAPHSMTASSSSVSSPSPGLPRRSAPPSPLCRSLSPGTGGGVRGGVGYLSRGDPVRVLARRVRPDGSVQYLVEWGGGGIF

Row | effect of a mutation on the interaction | Variant
10 | with no effect | N31D

Variants of: B1
Conditions: with cah8_human CA8, P35219
cah8_human CA8, P35219, sequence (P35219 whole entry): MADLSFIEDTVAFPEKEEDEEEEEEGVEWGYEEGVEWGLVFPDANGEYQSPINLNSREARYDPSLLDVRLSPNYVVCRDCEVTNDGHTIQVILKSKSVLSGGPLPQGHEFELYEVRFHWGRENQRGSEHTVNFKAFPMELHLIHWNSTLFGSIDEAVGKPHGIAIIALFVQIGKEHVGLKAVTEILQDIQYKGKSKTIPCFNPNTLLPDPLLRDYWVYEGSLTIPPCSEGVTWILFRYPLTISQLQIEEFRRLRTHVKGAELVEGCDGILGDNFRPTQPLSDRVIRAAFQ

Row | effect of a mutation on the interaction | Variant
11 | with no effect | N31D

Variants of: B2
Conditions: with itf2_human TCF4, P15884
itf2_human TCF4, P15884, sequence (P15884 whole entry): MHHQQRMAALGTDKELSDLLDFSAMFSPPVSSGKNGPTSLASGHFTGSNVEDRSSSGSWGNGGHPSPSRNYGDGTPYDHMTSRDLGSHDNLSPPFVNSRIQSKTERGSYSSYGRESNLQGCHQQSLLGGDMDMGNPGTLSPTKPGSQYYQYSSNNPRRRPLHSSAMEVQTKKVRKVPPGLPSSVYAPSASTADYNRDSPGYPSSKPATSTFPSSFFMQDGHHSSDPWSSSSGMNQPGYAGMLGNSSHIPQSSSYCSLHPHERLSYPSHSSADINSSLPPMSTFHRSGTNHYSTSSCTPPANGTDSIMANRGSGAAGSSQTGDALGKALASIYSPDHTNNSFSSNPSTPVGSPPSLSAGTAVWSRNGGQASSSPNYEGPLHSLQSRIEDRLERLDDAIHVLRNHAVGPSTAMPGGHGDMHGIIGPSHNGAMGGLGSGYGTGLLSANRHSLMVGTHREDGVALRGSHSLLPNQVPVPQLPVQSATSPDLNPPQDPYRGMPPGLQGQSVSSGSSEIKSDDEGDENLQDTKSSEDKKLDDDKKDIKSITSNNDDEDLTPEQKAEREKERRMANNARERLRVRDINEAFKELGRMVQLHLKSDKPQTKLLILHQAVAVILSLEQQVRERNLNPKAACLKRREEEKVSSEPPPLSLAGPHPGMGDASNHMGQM

Row | effect of a mutation on the interaction | Variant
12 | with no effect | N139S

Variants of: B2
Conditions: with hgs_human HGS

Row | effect of a mutation on the interaction | Variant
13 | with no effect | N139S

Variants of: B2
Conditions: with ikzf3_human IKZF3, Q9UKT9
ikzf3_human IKZF3, Q9UKT9, sequence (Q9UKT9 whole entry): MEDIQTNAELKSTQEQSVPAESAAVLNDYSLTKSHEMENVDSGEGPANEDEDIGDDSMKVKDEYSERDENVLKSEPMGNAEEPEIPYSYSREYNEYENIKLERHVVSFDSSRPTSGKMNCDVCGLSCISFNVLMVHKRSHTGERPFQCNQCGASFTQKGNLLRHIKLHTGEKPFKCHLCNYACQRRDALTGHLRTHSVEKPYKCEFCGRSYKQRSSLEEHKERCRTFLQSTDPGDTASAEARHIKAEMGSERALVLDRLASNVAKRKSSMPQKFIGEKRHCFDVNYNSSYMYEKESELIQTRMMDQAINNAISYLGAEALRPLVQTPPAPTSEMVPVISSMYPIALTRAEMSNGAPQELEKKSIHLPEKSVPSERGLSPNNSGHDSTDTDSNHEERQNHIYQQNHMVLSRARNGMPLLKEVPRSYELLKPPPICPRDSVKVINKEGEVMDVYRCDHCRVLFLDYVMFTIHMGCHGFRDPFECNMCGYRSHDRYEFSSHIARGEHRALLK

Row | effect of a mutation on the interaction | Variant
14 | with no effect | N139S
